{
  "source": "paper PMC6815410",
  "about": "“Characterization of Xi-class mycothiol S-transferase from Corynebacterium glutamicum and its protective effects in oxidative stress” (Microbial Cell Factories, 2019)",
  "key": {"MstX (NCgl1216) [1]": {"target": "T1, MstX (NCgl1216) (Corynebacterium glutamicum, UniProt Q8NR03)", "T1 construct": "gene Cgl1264; full length, 359 residues, 40,619 Da; pET28a His6 fusion from E. coli BL21(DE3), tag cleaved; monomer", "assay": "Mtr-coupled NADPH oxidation at […] nm (thiol transferase assay)", "format": "biochemical", "conditions": "100 mM MSH, 300 μM NADPH, 5 μM Mtr, 50 mM potassium phosphate pH 7.6, 25 °C"}, "MstX (NCgl1216) [2]": {"target": "T2, MstX (NCgl1216) (Corynebacterium glutamicum, UniProt Q8NR03, C262S)", "T2 construct": "gene Cgl1264", "assay": "MALDI-TOF MS of S-mycothiolated protein", "format": "binding", "conditions": "covalent; mixed disulfide at Cys67; formed with H2O2"}, "CC(C)(C)OO": {"tested_on": "CC(C)(C)OO", "assay": "purified protein", "conditions": "500 μM MSH, 4 μM Mtr, 250 μM NADPH, 1 mM EDTA, 50 mM Tris-HCl pH 7.5"}, "purified protein": {"substrate": "O=C1O[C@H]([C@@H](O)CO)C(=O)C1=O", "assay": "purified protein", "format": "biochemical, Corynebacterium glutamicum", "conditions": "100 mM MSH, 300 μM NADPH, 5 μM Mtr, 50 mM potassium phosphate pH 7.6, 25 °C"}, "CC(C)(OO)c1ccccc1": {"tested_on": "CC(C)(OO)c1ccccc1", "assay": "purified protein", "conditions": "500 μM MSH, 4 μM Mtr, 250 μM NADPH, 1 mM EDTA, 50 mM Tris-HCl pH 7.5"}},
  "data": [
    {"molecule": "OCCSSCCO", "note": "[HED]", "values": [
      {"measurement": "Km", "setting": "MstX (NCgl1216) [1]", "value": "192 ± 30", "unit": "µM"}
    ]},
    {"molecule": "CC(=O)N[C@@H](CS)C(=O)NC1[C@@H](O[C@@H]2[C@H](O)[C@H](O)[C@@H](O)[C@H](O)[C@H]2O)O[C@H](CO)[C@@H](O)[C@@H]1O", "note": "(stereo partly drawn) [MSH]", "values": [
      {"measurement": "MALDI-TOF MS of S-mycothiolated protein", "setting": "MstX (NCgl1216) [2]", "value": "Pure S-mycothiolated MstX:C262S were confirmed by Matrix-Assisted Laser Desorption/Ionization Time of Flight Mass Spectrometry"}
    ]},
    {"molecule": "MstX (NCgl1216) (Corynebacterium glutamicum ATCC 13032)", "values": [
      {"measurement": "Km", "setting": "CC(C)(C)OO", "value": "301.3 ± 46.62", "unit": "µM"},
      {"measurement": "kcat", "setting": "CC(C)(C)OO", "value": "0.135 ± 0.006", "unit": "s⁻¹"}
    ]},
    {"molecule": "MstX (NCgl1216) (Corynebacterium glutamicum ATCC 13032) (protein, full length, 359 residues, 40,619 Da; pET28a His6 fusion from E. coli BL21(DE3), tag cleaved; monomer) MANTSSDWAGAPQNASADGEFVRDTNYIDDRIVADVPAGSEPIAQEDGTFHWPVEAGRYRLVAARACPWAHRTVITRRLLGLENVISLGLTGPTHDVRSWTFDLDPNHLDPVLQIPRLQDAYFNRFPDYPRGITVPALVEESSKKVVTNDYPSITIDFNLEWKQFHREGAPNLYPAELREEMAPVMKRIFTEVNNGVYRTGFAGSQEAHNEAYKRLWVALDWLEDRLSTRRYLMGDHITEADIRLYPTLVRFDAVYHGHFKCGRNKITEMPNLWGYLRDLFQTPGFGDTTDFTEIKQHYYITHAEINPTRIVPVGPDLSGFATPHGREKLGGSPFAEGVTLPGPIPAGEEVKNPEPFQK", "values": [
      {"measurement": "Km", "setting": "purified protein", "value": "1115 ± 252", "unit": "µM"},
      {"measurement": "kcat", "setting": "purified protein", "value": "573 ± 44.3", "unit": "s⁻¹"},
      {"measurement": "kcat/Km", "setting": "purified protein", "value": "571000 ± 410000", "unit": "M⁻¹ s⁻¹"},
      {"measurement": "Km", "setting": "CC(C)(OO)c1ccccc1", "value": "328.1 ± 33.27", "unit": "µM"},
      {"measurement": "kcat", "setting": "CC(C)(OO)c1ccccc1", "value": "0.153 ± 0.005", "unit": "s⁻¹"}
    ]}
  ]
}
